From the DeepSol protein solubility set come the findings set out here.

This data set in a line: soluble on expression in E. coli; label from the status in PepcDB or PDB records.
Take “MSDVAETLDPLRLPLQGERLIEASAGTGKTFTIAALYLRLLLGLGGSAAFPRPLTVEELLVVTFTEAATAELRGRIRSNIHELRIACLRETTDNPLYERLLEEIDDKAQAAQWLLLAERQMDEAAVFTIHGFCQRMLNLNAFESGMLFEQQLIEDESLLRYQACADFWRRHCYPLPREIAQVVFETWKGPQALLRDINRYLQGEAPVIKAPPPDDETLASRHAQIVARIDTVKQQWRDAVGELDALIESSGIDRRKFNRSNQAKWIDKISAWAEEETNSYQLPESLEKFSQRFLEDRTKAGGETPRHPLFEAIDQLLAEPLSIRDLVITRALAEIRETVAREKRRRGELGFDDMLSRLDSALRSESGEVLAAAIRTRFPVAMIDEFQDTDPQQYRIFRRIWHHQPETALLLIGDPKQAIYAFRGADIFTYMKARSEVHAHYTLDTNWRSAPGMVNSVNKLFSQTDDAFMFREIPFIPVKSAGKNQALRFVFKGETQPAMKMWLMEGESCGVGDYQSTMAQVCAAQIRDWLQAGQRGEALLMNGDDARPVRASDISVLVRSRQEAAQVRDALTLLEIPSVYLSNRDSVFETLEAQEMLWLLQAVMTPERENTLRSALATSMMGLNALDIETLNNDEHAWDVVVEEFDGYRQIWRKRGVMPMLRALMSARNIAENLLATAGGERRLTDILHISELLQEAGTQLESEHALVRWLSQHILEPDSNASSQQMRLESDKHLVQIVTIHKSKGLEYPLVWLPFITNFRVQEQAFYHDRHSFEAVLDLNAAPESVDLAEAERLAEDLRLLYVALTRSVWHCSLGVAPLVRRRGDKKGDTDVHQSALGRLLQKGEPQDAAGLRTCIEALCDDDIAWQTAQTGDNQPWQVNDVSTAELNAKTLQRLPGDNWRVTSYSGLQQRGHGIAQDLMPRLDVDAAGVASVVEEPTLTPHQFPRGASPGTFLHSLFEDLDFTQPVDPNWVREKLELGGFESQWEPVLTEWITAVLQAPLNETGVSLSQLSARNKQVEMEFYLPISEPLIASQLDTLIRQFDPLSAGCPPLEFMQVRGMLKGFIDLVFRHEGRYYLLDYKSNWLGEDSSAYTQQAMAAAMQAHRYDLQYQLYTLALHRYLRHRIADYDYEHHFGGVIYLFLRGVDKEHPQQGIYTTRPNAGLIALMDEMFAGMTLEEA”: the “soluble on expression in E. coli” value is given as “soluble”. The value for “MGSDKIHHHHHHMIMRILVVGDFLKTSGMTRYIFNVIGRIHASDFQVDALSISGKDECKGQVKKMGWGFYCVQAANNNLLRHLVQSFIFFKKHAKDYDVIHFNESALWNFLPIIFAHLFGAKRIILNSHNTYFATEGSKKLYVVLEIMHRIGKWLVAHVVAQNIAVSEEAARWMFTRKTINRHEYKIIVNGIELEKFAYNKEQRFKIRKSLKINEDTFLFGNVGIFNARKNQLRLLEIFNELVKRNLDVKLVLVGDGPIKEAIVAKISELRLADKVVMTGLINNTNEYYQAMDGVIMPSLNEGLSTVLLEAQTSGLQFILSEGLPLGNHIDLLVHEVPLSESNRVWADVVEHNMNREKREVFGSIMQKKGFDVELSAKELYQTYLEER” was “not soluble”.

Consider “MALDNAKTSQKLQSLAELDGKAPSHRNLNVQTWSTAEGAKVLFVEARELPMFDLRLIFAAGSSQDGNAPGVALLTNAMLNEGVAGKDVGAIAQGFEGLGADFGNGAYKDMAVASLRSLSAVDKREPALKLFAEVVGKPTFPADSLARIKNQMLAGFEYQKQNPGKLASLELMKRLYGTHPYAHASDGDAKSIPPITLAQLKAFHAKAYAAGNVVIALVGDLSRSDAEAIAAQVSAALPKGPALAKIEQPAEPKASIGHIEFPSSQTSLMLAQLGIDRDDPDYAAVSLGNQILGGGGFGTRLMSEVREKRGLTYGVYSGFTPMQARGPFMINLQTRAEMSEGTLKLVQDVFAEYLKNGPTQKELDDAKRELAGSFPLSTASNADIVGQLGAMGFYNLPLSYLEDFMRQSQELTVEQVKAAMNKHLNVDKMVIVSAGPTVAQKPLEHHHHHH”, for which the “soluble on expression in E. coli” value is reported as “not soluble”.

As for “MDHGVVLLSDDQGLQWRQASSVPLSTPLTGVSFVDAKRGWAVGHWGAILITTDGGESWQVQRLATEEDRPLFAVHFFNARQGVAVGLWSLVLTTEDGGQTWSEQPLQAPPGAKRADLNLMGLFADSRGTLYATAEHGQVLHSEDQGKNWRYLDTGYEGTLWAGAVLADGRLLLGGQRGTLLQGSADGKGFHRVPTQSKGSVTCVAVAGSRVLAVGLDGLSVQSSDGGHSFQETQTADGLSLTAALFNAEGVPVLFSRRGVMPYQELEHHHHHH”, the “soluble on expression in E. coli” value is “not soluble”. For the sequence “MRKPIEHTADIAYEISGNSYEELLEEARNILLEEEGIVLDTEEKEKMYPLEETEDAFFDTVNDWILEISKGWAPWRIKREGNELKVTFRKIRKKEGTEIKALTYHLLKFERDGDVLKTKVVFDT”, the “soluble on expression in E. coli” value is given as “not soluble”. For “MRMIFVNLPVKNIEVSKSFFTALGFSFNPEYSDDRTLCMIVEENIFVMLLQEDRFRDFINGDIADAKQSTEVLTCLSAGSREEIDEMIATALASGGSSWKPVQDHGFMYAGSFQDPDGHVWELVHMTGQG”, the “soluble on expression in E. coli” value is given as “soluble”. As to “MADSIASIGNRYIDNNDTDMHFLRTWAVRRCQHTDWDICERIRLGELKEARDRAAQMEKTMRWWSSCTADWRNRWSAVRDERNRAREEAETLRLNYDLLLEEKRFLAEQLYHVDSESDEPKLEISQKPEIDGTKRNAVVQTIHSISCDPPSILVKSYSAAQIEAVLREPSVDEPPVETTKSDINEELKAENEFLKDQANELNKCREKIETDGKTIQDLRLRIQSMERELMAAKNSKRASSS”, the “soluble on expression in E. coli” value is recorded as “not soluble”.

Turning to “MQDRNFDDIAEKFSRNIYGTTKGQLRQAILWQDLDRVLEEIGGRKLRVLDAGGGEGQTAIKMAERGHQVTLCDLSGEMIARARQAAEAKGVSKDMHFIQCPAQDVASHLESPVDLILFHAVLEWVADPVGVLETLWSVLRPGGALSLMFYNANGLLMHNMVAGNFDYVQAGMPKRKKRTLSPDYPRDPAQVYQWLEAIGWQITGKTGVRVFHDYLREKHQQRDCYETLVELETRYCRQEPYISLGRYIHVTAIKSPALAADARITYE”, the “soluble on expression in E. coli” value is “not soluble”. The entry for “GALRSLVLIGHGSHHHGESARATQQVAEALRGRGLAGHLPYDEVLEGYWQQEPGLRQVLRTVAYSDVTVVPVFLSEGYVTETVLPRELGLGHQGPVPTGGVVRVLGGRRVRYTRPLGAHPGMADAIAAQARDTLPEGTDPADVTLLLLAARPGNAALETHAQALRERGQFAGVEVVLESREALTPESHAASAVPLSEWPSRVEAGQAVLVPFLTHLGKHAAERLQQALAQAAERFPQAPPLHVGGPVGEHPAVAEVVLALAAEGREDERGGDIDQAHAEAWAALRHLAERGGRLGEVLLTPYGGLFELRHTLDEGRATLDLQTVVTPEGLRDLTARDEAGRWRPIRTWRTLPRGWRAVLSPADLRLGLELLYPAVIEESYAHEHRRLHWTPWMSTARRQTGTLARVQRATPDQVDTVAAQVCASCLRTRLWAGHTLGQTIFSGVPGGLPCAEACTVLLAAVRDEVGREAMGSGD” is “soluble”; for “MGSDKIHHHHHHMENRKHTSLKDLAQALGVSIPTVSRALKDSPEISRELCAKAKKLAKEMNYRPNPFAMSLRKNAPRIIGVIVPDIVTHFFASILNGIENMAIDNGYFVIITTSHESFEHEKRNIENLVNMRVEGIIACLSQETTDFSHFAALKEINMPLILFDRVCLTDQFSSVIADGAQSAQMATQHLLDNGSKRVAFIGGANHLDIVKRRKHGYLEALRDNRIPIEKELVVCRKIDYEEGQIATETLLSLPQPPDAILAMNDTLAFAAMEVIKRHGLRIPDDIAIIGYTDEQHANYVEPKLSAVSHQTYKMGETACQLLIDQIKGDRTVKQVVIPTHLQIRESSIKENNKKNAVST” it is “not soluble”. The value for “MDTPSLTPWLSIVGISEEGWLALTPIAQQCILQADILVGSDRHFDLLPSLPGAEQWRWGSPFSATITQILERRGQSICILASGDPMCYGVGSLLAQRLPLTELQILPAPSAFSLACSRLGWALPEVETLSLCGRDPALLNALLYPGAKILALSADRSTPATIAEQLCQQGWGSSRLTVLEHLGGPKERKISEIAEHWSQPTIASLNTVAIECHARDRDLIVPPRLTGLPDAAYHHDGQLTKREVRAITLAALAPLPGQLLWDVGAGCGSIGIEWMRSDRRCRAIAIEQHPQRLQIITQNAIALGVPNLQVVAGSAPATLSGLPQPDAIFIGGGVTAPGVLDQCWQALPMGGRLVVNAVTLESEQVVLAGQQRWGGDLIRVAVQRAEPIGRFLGWKSLAPITQWTVKKTALEHHHHHH” was “not soluble”; that for “EVLRVQDKYFHIKCFVCKACGCDLAEGGFFVRQGEYICTLDYQRLYGTRCFSCDQFIEGEVVSALGKTYHPDCFVCAVCRLPFPPGDRVTFNGKECMCQKCSLPVSVGSSAHLSQGLRSCGGCGTEIKNGQALVALDKHWHLGCFKCKSCGKLLNAEYISKDGLPYCEADYHAKFGIRCDSCEKYITGRVLEAGEKHYHPSCALCVRCGQMFAEGEEMYLQGSSIWHPACRQAARTEDRNKETRTSSESIISVPASSTSGSPSRVIYAKLGGEILDYRDLAALPKSKAIYDIDRPDMISYSPYISHSAGDRQSYGEGDQDDRSYKQCRTSSPSSTGSVSLGRYTPTSRSPQHYSRPGSESGRSTPSLSVLSDSKPPPSTYQQAPRHFHVPDTGVKDNIYRKPPIYRQHAARRSDGEDGSLDQDNRKKSSWLMLKGDADTRTNSPDLDTQSLSHSSGTDRDPLQRMAGDSFHSQYKIYPYDSLIVTNRIRVKLPKDVDRTRLERHLSPEEFQEVFGMSIEEFDRLALWKRNDLKKKALLF” was “soluble”; that for “MSPVVSEASPERWDDETDVLVIGSGAGGLSAALFAAQAGLRVLICEKLAYVGGTTATSGGGIWVPGTKAGLAAGDTLEAARTYLKALLGDFYQEEVIDTYLATGGKVIDFLNENTEVKFDLSSWPDYRSSLPGGATRGRSLFPQPFDGKKLGRNFSLLHPPLHRLMVLGGLMLGPEEVHDFLRPFSSPRALMRVLRKLLRYGMDRIRYARGTDLRSGNALAARLLYSVDKLGCRILTQADLESLAIDHDRVIGATVVVGGVPKRIRASKAVLLATGGFAHNQEMLRRYGPATPHRFSLCNPACTGAGIQAALDAGASVDRELSSVGFWTPASASREKNGADTPVIYGYLDRGRPGVIAVNEQGERFVNEANSYHDIVTAIFANGGADGKPFYFITDREFVRRHGLGLIRPWPWNRSLRPWIRRGYITVASTLDKLGPKIGIDPGALAAAVQRHNQSARTGQDPDFHKGASAYNRMFGHNMTWPNPNLAPIETPPFVALRIHPATIGTAMGLKTSASGQALNAAGQPISGLYACGNNQASPFRGFYPGGGSTLGPAIVGAYLAVQSLSKPLEHHHHHH” was “soluble”. The entry for “MPEILKVKPTRMELLKLKRRVKLAERGHKLLKEKQDALIMEFFTIYDEALSMRRELIKKIGEAFEALRLAQVEVGSVRLKEIAIGVNPNKEIEVRSRNIMGVRVPLIEVPELKRKPSERGYAFISTSSAVDVAAEKFEEVLELAIRLAEVEESLKRLGKEIEKTKRRVNALEYIIIPRMKNTIKFIEQHLDEMERENFFRLKRIKALLEARESMLEHHHHHH” is “not soluble”; for “MAHHHHHHSLPIKIPDNLPAAKTLNEENIFFMDEDRAYHQDIRPLNIVIVNLMPTKIVTETQILRLIGNSPLQVNPTFIHTQTHKSQNTSKEHLIKFYETFEEIKNNKFDGMIVTGAPVETLSFENVDYWEELCRIFDWSVTNVTSTIHICWGAQAGLYHHYGIPKYELHEKLFGVFKHNLTERNIKLTRGFDDEFYAPHSRHTYVKREDIKKNPSLKILAESDEAGAYIVASENGKNIFVMGHAEYDGDTLNLEYIRDKNQGMNIKIPKNYFKDNDPEKGPMVTWRGHANLLFSNWLNYYVYQETPFELEG” it is “soluble”. “MSLTEKCVIKIGGSVLKDGSSLPRVMDIISHFRSPILVVSAFGGITDALYRFYEYDESRMDKLRDLLLMHLGILWKYNIEAHPEISIQDSSILDQDAYVSYGEKMSAFTLARFLTGNGIPAAPIYTDEAGLIVEEISKERTVDLEGSRAFFENIARVETSGKVPVVTGFFGIDRYGKTRILGRNSSDYSAVAVAAILGIREVILIKDVPGIYMNLEDRTSIVNRIDYETALRIVDRGSKVVHRAALRLAMKMGMNLLITSPENLESGTVIGDLFEGHHHHHH”: the “soluble on expression in E. coli” value is reported as “soluble”.
